Broadly, the Kd is the constant that tells how readily two partners part at equilibrium.

One molecule from PMC7901142 (The Journal of Cell Biology, 2021) can be followed below.

For the assay, the target named is SNX27-PDZ WT (human, UniProt Q96L92 43-136). Put plainly: ITC. In general terms: ITC needs no label: the signal is the heat of the interaction.

B1: SEMA4C (aa 686–833) (domain or fragment)
chain: LRRRLREELEKGAKATERTLVYPLELPKEPTSPPFRPCPEPDEKLWDPVGYYYSDGSLKIVPGHARCQPGGGPPSPPPGIPGQPLPSPTRLHLGGGRNSNANGYVRLQLGGEDRGGLGHPLPELADELRRKLQQRQPLPDSNPEESSV
B1 yielded a Kd of 4.5 µM. This lies in the single-digit micromolar range.
